From patent US20080108569A1, “Compositions and Methods for Treating Diseases Associated With Phlpp” (The Regents of the University of California, priority 2005, published 2008)

Columns and labels:
Akt = target: T1, Akt (Homo sapiens, UniProt P31749); assay: phosphatase assay with purified GST-tagged PHLPP2 PP2C domain and pure phosphorylated Akt; type: biochemical; details: in 5 minutes, pure
T1 construct: 6His; made in house; host or cells: Akt1: baculovirus-infected Sf21 cells; HA-PHLPP2: transfected 293T cells, immunoprecipitated with HA antibody
T1 sequence (P31749 whole entry, the tested form may be a part): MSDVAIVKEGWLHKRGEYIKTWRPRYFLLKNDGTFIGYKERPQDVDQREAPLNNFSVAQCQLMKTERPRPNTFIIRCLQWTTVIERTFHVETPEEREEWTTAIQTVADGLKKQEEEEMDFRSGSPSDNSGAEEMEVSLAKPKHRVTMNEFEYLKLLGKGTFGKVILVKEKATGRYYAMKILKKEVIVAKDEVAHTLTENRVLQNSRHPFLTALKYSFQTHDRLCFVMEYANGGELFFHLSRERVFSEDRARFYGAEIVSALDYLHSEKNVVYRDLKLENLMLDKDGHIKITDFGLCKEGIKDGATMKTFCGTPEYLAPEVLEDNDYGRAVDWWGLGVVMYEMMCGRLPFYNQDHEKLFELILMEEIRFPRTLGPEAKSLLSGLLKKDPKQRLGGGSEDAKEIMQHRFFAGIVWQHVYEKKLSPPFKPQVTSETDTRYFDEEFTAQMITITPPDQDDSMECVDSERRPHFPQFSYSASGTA
Procedure: A GST-fusion protein of PHLPP-1α-PP2C was expressed in BL21 (DE3) and purified using glutathione-Sepharose. The GST-PP2C proteins were eluted from the beads in PBS containing 10 mM glutathione and 1 mM DTT, and dialyzed against 50 mM Tris (pH 7.4) and 1 mM DTT. His-tagged Akt was expressed and purified from baculovirus-infected Sf21 cells. Briefly, Sf21 cells were maintained in SF-900 II media (Invitrogen) and infected with baculovirus encoding His-Akt for 3 days. To obtain maximally phosphorylated Akt as substrate, the infected cells were treated with 10% FBS and calyculin A (100 nM) for 15 minutes prior to lysis. The infected cells were lysed in PBS containing 1% Triton X-100 and 10 mM imidazole, and His-Akt proteins were purified using Ni-NTA beads (Qiagen). The dephosphorylation reactions were carried out in a reaction buffer containing 50 mM Tris (pH 7.4), 1 mM DTT and 5 mM MnCl2 at 30° C. for 0-30 minutes. […]
GST-PP2C was expressed in BL21 bacterial cells; phosphatase assays were performed using the purified GST-PP2C construct conjugated to glutathione-sepharose and pure Akt as a substrate as described above. The activity of full length HA-PHLPP2 was assessed by expressing and immunoprecipitating PHLPP2 from 293T or H157 cell lysates. […]

LN229 cells [1] = assay: growth rate of glioblastoma cells transfected with PHLPP (viable cells in G418 media); type: cell-based, human; details: glioblastoma cell line wild-type in PTEN
Procedure: (§1) LN229 cells were transfected with vector, HA-PHLPP or HA-ΔC. Approximately 30 hours post-transfection, the cells were switched to selection media (DMEM, 10% FBS, 1% penicillin/streptomycin and 800 μg/ml G418). The viable cells were counted after 7 days in selection media. The number of viable cells reflects the effect of PHLPP on cell proliferation. The G418 resistant stable cells were propagated and expanded for an additional 2-3 passages to obtain the number of cells needed for mice injection. For subcutaneous inoculation, 3×10^6 or 5×10^6 cells were injected into 4- to 5-week old female nude mice of BALB/c background. The size of tumors was measured once a week with a caliper, and tumor volumes were defined as (longest diameter)×(shortest diameter)^2×0.5. Tumors were excised from individual mice and flash frozen in liquid N2. The tumor samples were homogenized in buffer A, and detergent-solubilized lysates were subjected to SDS-PAGE and Western blotting analysis.

LN229 cells [2] = assay: tumorigenicity of subcutaneously injected glioblastoma cells transfected with PHLPP; type: in vivo, nude mice of BALB/c background; details: subcutaneous injection
Procedure: as §1

Molecule | dephosphorylation of Ser 473 (P473) (Akt) | dephosphorylation of Thr 308 (P308) (Akt) | decrease of the growth rate (LN229 cells [1]) | ability of the cells to induce tumors (LN229 cells [2])
PHLPP2 PP2C domain: GST-tagged PP2C domain of PHLPP2 (residues 780-1030) expressed in bacteria (protein, left off: a dimerising Fc or GST, GST-tagged PP2C domain of PHLPP2 (residues 780-1030) expressed in bacteria) TSTFWSHGLAEMAGQRNKLCVSALAMDSFAEGVGAVYGMFDGDRNEELPRLLQCTMADVLLEEVQQSTNDTVFMANTFLVSHRKLGMAGQKLGSSALLCYIRPDTADPASSFSLTVANVGTCQAVLCRGGKPVPLSKVFSLEQDPEEAQRVKDQKAIITEDNKVNGVTCCTRMLGCTYLYPWILPKPHISSTPLTIQDELLILGNKALWEHLSYTEAVNAVRHVQDPLAAAKKLCTLAQSYGCQDNVGAMV | 82+6% | 70+2% |  | 
PHLPP: PH domain Leucine rich repeat Protein Phosphatase; HA-PHLPP-1α construct transfected into LN229 glioblastoma cells (SEQ ID NO: 2) (protein, listed as Homo sapiens, HA tag) MDSEIGCLIRFYAGKPHSTGSSERIQLSGMYNVRKGKMQLPVNRWTRRQVILCGTCLIVSSVKDSLTGKMHVLPLIGGKVEEVKKHQHCLAFSSSGPQSQTYYICFDTFTEYLRWLRQVSKVASQRISSVDLSCCSLEHLPANLFYSQDLTHLNLKQNFLRQNPSLPAARGLNELQRFTKLKSLNLSNNHLGDFPLAVCSIPTLAELNVSCNALRSVPAAVGVMHNLQTFLLDGNFLQSLPAELENMKQLSYLGLSFNEFTDIPEVLEKLTAVDKLCMSGNCVETLRLQALRKMPHIKHVDLRLNVIRKLIADEVDFLQHVTQLDLRDNKLGDLDAMIFNNIEVLHCERNQLVTLDICGYFLKALYASSNELVQLDVYPVPNYLSYMDVSRNRLENVPEWVCESRKLEVLDIGHNQICELPARLFCNSSLRKLLAGHNQLARLPERLERTSVEVLDVQHNQLLELPPNLLMKADSLRFLNASANKLESLPPATLSEETNSILQELYLTNNSLTDKCVPLLTGHPHLKILHMAYNRLQSFPASKMAKLEELEEIDLSGNKLKAIPTTIMNCRRMHTVIAHSNCIEVFPEVMQLPEIKCVDLSCNELSEVTLPENLPPKLQELDLTGNPRLVLDHKTLELLNNIRCFKIDQPSTGDASGAPAVWSHGYTEASGVKNKLCVAALSVNNFCDNREALYGVFDGDRNVEVPYLLQCTMSDILAEELQKTKNEEEYMVNTFIVMQRKLGTAGQKLGGAAVLCHIKHDPVDPGGSFTLTSANVGKCQTVLCRNGKPLPLSRSYIMSCEEELKRIKQHKAIITEDGKVNGVTESTRILGYTFLHPSVVPRPHVQSVLLTPQDEFFILGSKGLWDSLSVEEAVEAVRNVPDALAAAKKLCTLAQSYGCHDSISAVVVQLSVTEDSFCCCELSAGGAVPPPSPGIFPPSVNMVIKDRPSDGLGVPSSSSGMASEISSELSTSEMSSEVGSTASDEPPPGALSENSPAYPSEQRCMLHPICLSNSFQRQLSSATFSSAFSDNGLDSDDEEPIEGVFTNGSRVEVEVDIHCSRAKEKEKQQHLLQVPAEASDEGIVISANEDEPGLPRKADFSAVGTIGRRRANGSVAPQERSHNVIEVATDAPLRKPGGYFAAPAQPDPDDQFIIPPELEEEVKEIMKHHQEQQQQQQPPPPPQLQPQLPRHTQLDQLPDYYDTPL |  |  | approximately 50% | dramatically reduces
